The subject of this data set is VHH 9E (humanized single-domain antibody) (synthetic humanized VHH library NaLi-H1). In words: ELISA. The note with it: ELISA: biotinylated DNA on avidin plates, 2 h binding, PBS/PBST washes (competition mix at RT). EMSA: PBS, 10% glycerol, RT 2 h, 8% native PAGE in TAE at 4 C. ….

On to “AAAATACATTTATATATATCCTAGTCCGACCGCAGGATCCTATAA / TTATAGGATCCTGCGGTCGGACTAGGATATATATAAATGTA [41-mer dsDNA target (BIOTIN-R-CELL + O3-CELL)]”, for which, for the setting “pH 5”, the binding signal was 82%. For the same sequence, the K half (serial dilutions of VHH on immobilized dsDNA, relative binding affinity) is 200 nM.

These data come from PMC8360651.
